Source: article PMC8264776

Target: T1, OsbHLH148 (bHLH148-6xHis) (Oryza sativa) (UniProt Q75KV9)
T1 sequence: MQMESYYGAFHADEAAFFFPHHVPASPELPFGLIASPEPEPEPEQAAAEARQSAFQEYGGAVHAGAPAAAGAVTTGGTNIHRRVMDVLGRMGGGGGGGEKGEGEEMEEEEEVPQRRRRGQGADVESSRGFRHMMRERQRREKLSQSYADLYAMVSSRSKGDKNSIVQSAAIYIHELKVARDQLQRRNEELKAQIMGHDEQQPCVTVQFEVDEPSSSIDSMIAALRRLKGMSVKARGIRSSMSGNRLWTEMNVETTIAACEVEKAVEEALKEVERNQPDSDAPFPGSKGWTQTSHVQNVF
Test: EMSA
Conditions: 10 mM Tris pH 7.5, 50 mM KCl, 1 mM DTT, 2.5% glycerol, 5 mM MgCl (so in the source), 0.05% NP-40, 50 ng/ul poly(dI-dC); 20 min room temperature; 5% native PAGE

For “AAATAAATAAGACAGACGATTAAAATTAGATACGTAAATCATGGCGGCGTTTAAAATGGGATGGATTGAGTAGTACACTGTACCAGCGTACCCTTTTGTACTCATAGGAAGACTTCGACATTTTCAAACACTTGAGGACAACTTTCCAATTCAATAACAATACTACTCCACACGTGGCTGAAATGGCTGAAAAAGTTCCA (double strand) [OsRAP2.6 promoter fragment]”, the binding was “binds”.
